These results are taken from article PMC10089223 (Proceedings of the National Academy of Sciences of the …, 2022).

Sequences and labels used below:
B1: AtARF2-FL OPCA (D797-8S) (natural protein, Arabidopsis thaliana, UniProt Q94JM3 1-859, looked up)
chain: MASSEVSMKGNRGGDNFSSSGFSDPKETRNVSVAGEGQKSNSTRSAAAERALDPEAALYRELWHACAGPLVTVPRQDDRVFYFPQGHIEQVEASTNQAAEQQMPLYDLPSKLLCRVINVDLKAEADTDEVYAQITLLPEANQDENAIEKEAPLPPPPRFQVHSFCKTLTASDTSTHGGFSVLRRHADECLPPLDMSRQPPTQELVAKDLHANEWRFRHIFRGQPRRHLLQSGWSVFVSSKRLVAGDAFIFLRGENGELRVGVRRAMRQQGNVPSSVISSHSMHLGVLATAWHAISTGTMFTVYYKPRTSPSEFIVPFDQYMESVKNNYSIGMRFKMRFEGEEAPEQRFTGTIVGIEESDPTRWPKSKWRSLKVRWDETSSIPRPDRVSPWKVEPALAPPALSPVPMPRPKRPRSNIAPSSPDSSMLTREGTTKANMDPLPASGLSRVLQGQEYSTLRTKHTESVECDAPENSVVWQSSADDDKVDVVSGSRRYGSENWMSSARHEPTYTDLLSGFGTNIDPSHGQRIPFYDHSSSPSMPAKRILSDSEGKFDYLANQWQMIHSGLSLKLHESPKVPAATDASLQGRCNVKYSEYPVLNGLSTENAGGNWPIRPRALNYYEEVVNAQAQAQAREQVTKQPFTIQEETAKSREGNCRLFGIPLTNNMNGTDSTMSQRNNLNDAAGLTQIASPKVQDLSDQSKGSKSTNDHREQGRPFQTNNPHPKDAQTKTNSSRSCTKVHKQGIALGRSVDLSKFQNYEELVAELDRLFEFNGELMAPKKDWLIVYTDEENDMMLVGSSPWQEFCCMVRKIFIYTKEEVRKMNPGTLSCRSEEEAVVGEGSDAKDAKSASNPSLSSAGNS

In series [1] the target is AtARF2-DBD (DNA binding domain of Arabidopsis thaliana auxin response factor 2) (Arabidopsis thaliana).
Series [2] deals with the molecule itself.
The series “AtARF2-FL OPCA (D797-8S)” concerns the target B1.

By Kd is commonly meant the free concentration of one partner at which half of the binding sites on the other are occupied at equilibrium, for simple one-to-one binding. Low values mean tighter binding, high ones weaker binding.

“AtARF2-DBD (DNA binding domain of Arabidopsis thaliana auxin response factor 2) (domain or fragment)” registered an equilibrium dissociation constant (Kd) in series [1] of 1900 nM.
Take B1: in series [2], the equilibrium dissociation constant (Kd) worked out at 410 nM.

B2: AtARF2-FL K2S (K737S) (natural protein, Arabidopsis thaliana, UniProt Q94JM3 1-859, looked up)
chain: MASSEVSMKGNRGGDNFSSSGFSDPKETRNVSVAGEGQKSNSTRSAAAERALDPEAALYRELWHACAGPLVTVPRQDDRVFYFPQGHIEQVEASTNQAAEQQMPLYDLPSKLLCRVINVDLKAEADTDEVYAQITLLPEANQDENAIEKEAPLPPPPRFQVHSFCKTLTASDTSTHGGFSVLRRHADECLPPLDMSRQPPTQELVAKDLHANEWRFRHIFRGQPRRHLLQSGWSVFVSSKRLVAGDAFIFLRGENGELRVGVRRAMRQQGNVPSSVISSHSMHLGVLATAWHAISTGTMFTVYYKPRTSPSEFIVPFDQYMESVKNNYSIGMRFKMRFEGEEAPEQRFTGTIVGIEESDPTRWPKSKWRSLKVRWDETSSIPRPDRVSPWKVEPALAPPALSPVPMPRPKRPRSNIAPSSPDSSMLTREGTTKANMDPLPASGLSRVLQGQEYSTLRTKHTESVECDAPENSVVWQSSADDDKVDVVSGSRRYGSENWMSSARHEPTYTDLLSGFGTNIDPSHGQRIPFYDHSSSPSMPAKRILSDSEGKFDYLANQWQMIHSGLSLKLHESPKVPAATDASLQGRCNVKYSEYPVLNGLSTENAGGNWPIRPRALNYYEEVVNAQAQAQAREQVTKQPFTIQEETAKSREGNCRLFGIPLTNNMNGTDSTMSQRNNLNDAAGLTQIASPKVQDLSDQSKGSKSTNDHREQGRPFQTNNPHPKDAQTKTNSSRSCTSVHKQGIALGRSVDLSKFQNYEELVAELDRLFEFNGELMAPKKDWLIVYTDEENDMMLVGDDPWQEFCCMVRKIFIYTKEEVRKMNPGTLSCRSEEEAVVGEGSDAKDAKSASNPSLSSAGNS
As to B2, the Kd in the series with AtARF2-FL OPCA (D797-8S) turned out to be 16 nM; in series [2], 230 nM.
